Like-named read-outs stand apart in the source and are kept apart here.
Tests used:
Cav3.1 [1] = target: T1, Cav3.1 (Homo sapiens, UniProt O43497); test: Whole-cell patch clamp of Cav3.1 current in Cav3.1/HEK cells transfected with chimeras, truncations and point mutants (Example 6); type: cell-based; conditions: FIG. 38, FIG. 41
T1 construct: expressed in transfected cells; host or cells: HEK-293, stably transfected
Description: Transfection. HEK-293 cells stably transfected with either Cav3.1 or Cav3.2 were transiently transfected, at 50% confluency, with a bicistronic vector encoding both GFP and γ subunit cDNA's using Lipofectamine 2000 reagent (Invitrogen, Carlsbad, Calif.) as per the manufacturer's recommendations. Cells were visualized using an Nikon inverted microscope with an FITC filter.
Electrophysiology. Whole cell Ca^2+ currents were recorded using an Axon Instruments Axopatch-1D amplifier and Clampex 8.0 software. Pipettes were made from boroscillicate glass and had typical resistances of 2-4 Mohms. The pipette solution contained (in mM) 130 NaCl, 10 EGTA, 2 or 5 MgCl2, 1 CaCl2, 10 HEPES, 3 Tris-ATP, and 0.3 Li2GTP. Two different bath solutions were used. The first, used for experiments with γ subunit chimeras, contained (in mM) 130 NaCl, 1 MgCl2, 2 CaCl2, 10 glucose, 10 HEPES, and 0.03 TTX. The second, used for experiments with γ subunit containg point mutations, contained (in mM) 137 NaCl, 1 KCl, 1 MgCl2, 0.33 NaH2PO4, 2 CaCl2, 10 HEPES. All solutions were adjusted to pH 7.4 with NaOH and 280 mOsm with sucrose. No Cl^− currents were evident in any HEK-293 cells line, stably transfected or not, and no attempt was made to eliminate Cl^− currents from data records.
All electrophysiological data are from current records in which voltage offset was adjusted, pipette capacitance and whole cell capacitance were compensated and series resistance was compensated to >80%. Currents were filtered at 10 kHz and recorded at 40 kHz. In some cases, current records were off-line filtered at 1K. Current voltage relationships were recorded using an on-line P/−4 subtraction procedure to eliminate linear capacitative and leakage currents. Only recordings with less than 50 pA leakage current were used.
Several different protocols were used to determine the biophysical characteristics of currents in HEK-293 cells. The voltage dependence of activation was determined using “tail” currents. Cells were depolarized from a holding potential of −100 mV to test potentials ranging from −90 mV to +60 mV. Pulse durations varied and corresponded to the time to peak current measured at the corresponding test potentials. Following the conditioning pulse cells were re-polarized to −60 mV and the amplitude of the resulting “tail” current measured. The voltage dependence of inactivation was measured by depolarizing the cells to voltages ranging from −120 mV to 50 mV for 500 ms to inactivate the Ca^2+ channels. After this conditioning step the membrane was returned to the holding potential (−100 mV) for 3 ms and then depolarized a second time to +20 mV for 150 ms during which time the peak current was measured. Time constants for inactivation were measured by fitting a single exponential equation to the decay phase of currents elicited by voltage steps from −50 to +30 mV from a holding potential of −100 mV. Time constants for deactivation were measured by fitting either a single or a double exponential to the decay phase of tail currents.
To account for the inherent variation in calcium current density in the HEK-Cav3.1 stable cell line the averaged current density of each test group of cells was normalized to the mean current density of a control group of cells. A minimum of 5 cells (typically 7 to 10) from each group was used to calculate the mean current densities of test and control cells. At least two independent transfections were performed for each test condition. […]

Cav3.1 [2] = target: T1, Cav3.1; test: Whole-cell patch clamp of Cav3.1 current in Cav3.1-HEK cells transfected with γ6, γ4, their first transmembrane domains or point mutants (Example 3); type: cell-based; conditions: for Normalized Current Density: relative to vector control (100.0%), Table 3.3
Description: Transfection. HEK-293 cells stably transfected with the Cav3.1 α1 subunit were transiently transfected with vectors containing GFP and γ subunits cDNA when the cultures reached 50% confluency. Lipofectamine 2000 reagent (Invitrogen) was used following manufacturer's protocol.
Electrophysiology. Whole cell Ca2+ currents were recorded at room temperature using an Axon Instruments Axopatch-1D amplifier, a Digidata 1200 interface and pClamp8.0 software about 48 hours after transfection. Cell capacitance was typically around 10 pF, but ranged from 5-40 pF. Recording micropipettes were made from borosilicate glass (2-3 Mohms tip resistance), and filled with solution contained (in mM) 130 NaCl, 10 EGTA, 2 MgCl2, 1 CaCl2, 10 HEPES, 3 Tris-ATP, and 0.3 Li2GTP or 0.3 Tris-GTP. Tyrode's solution was used as the bath solution. It contained (in mM) 137 NaCl, 1 KCl, 1 MgCl2, 0.33 NaH2PO4, 2 CaCl2, 10 HEPES. Both solutions were adjusted to pH 7.4 with NaOH and 280 mOsm with sucrose.
We determined the biophysical characteristics of Cav3.1 currents in transfected HEK-293 cells and effects of the first transmembrane domain of γ4 and γ6 on these properties. Test parameters were optimized for studying Cav3.1 current. The time constant (τ) of deactivation (τdeac) was obtained by single exponential fitting of tail currents. For Cav3.1 currents, the cells were clamped at a holding potential of −100 mV, then depolarized to −20 mV for 4 msec, and repolarized to various voltages from −120 mV to −60 mV at 10 mV interval for 150 msec to elicit tail currents.
The voltage dependence of activation was measured using tail currents. For Cav3.1 currents, the cells were clamped at a holding potential equal to −100 mV, and then depolarized briefly to a conditioning potential, varying from −90 mV to +60 mV, and finally clamped at −60 mV before inactivation. Using this protocol, all tail currents are elicited at the same driving force (at −60 mV), so the current amplitude accurately reflects the number of channels opened during the different conditioning potentials.
A series of conditioning prepulses of 500 msec were used to measure voltage dependence of inactivation in our experiments. Channels initially open and then reach steady-state inactivation during the 500 msec long prepulses. The membrane potential is stepped to a fixed test potential of −20 mV, where maximal peak current is elicited. Currents elicited at each test potential reflect how many channels are not in the inactivated state after a steady-state inactivation; that is, how many channels are available to open. The conditioning prepulse potentials were changed from −120 mV to 50 mV, and the test potential is fixed at −20 mV.
Data collection and analysis. To probe the structural features necessary for the function of γ subunits, we are using HEK-293 cell line stably transfected with Cav3.1 α1 subunit. These cells are then transiently transfected with vectors containing various chimeric, truncated or mutant gamma subunits. […] There is inherent variation in calcium current density in the HEK-Cav3.1 stable cell line likely due to differences in the batch used, passenger number, extent of cellular confluence, or for other unknown reasons. The averaged current density of each test group of cells was normalized to the mean current density of a parallel control group of cells plated from the same batch of cells and analyzed on the same day. A minimum of 5 cells (typically 7 to 10) from each group was used to calculate the mean behavior of test and control cells from each days recording. At least two independent transfections were performed for each test condition. Overall, averages were obtained from 21 control groups of cells that had been transfected with empty vector over several months. The data are pooled together to reduce the variance. […] The current density of the control cells over many months justified the pooling of data recorded from different batches of cells transfected with mutated γ subunits. […]

T1 sequence (O43497 whole entry, the tested form may be a part): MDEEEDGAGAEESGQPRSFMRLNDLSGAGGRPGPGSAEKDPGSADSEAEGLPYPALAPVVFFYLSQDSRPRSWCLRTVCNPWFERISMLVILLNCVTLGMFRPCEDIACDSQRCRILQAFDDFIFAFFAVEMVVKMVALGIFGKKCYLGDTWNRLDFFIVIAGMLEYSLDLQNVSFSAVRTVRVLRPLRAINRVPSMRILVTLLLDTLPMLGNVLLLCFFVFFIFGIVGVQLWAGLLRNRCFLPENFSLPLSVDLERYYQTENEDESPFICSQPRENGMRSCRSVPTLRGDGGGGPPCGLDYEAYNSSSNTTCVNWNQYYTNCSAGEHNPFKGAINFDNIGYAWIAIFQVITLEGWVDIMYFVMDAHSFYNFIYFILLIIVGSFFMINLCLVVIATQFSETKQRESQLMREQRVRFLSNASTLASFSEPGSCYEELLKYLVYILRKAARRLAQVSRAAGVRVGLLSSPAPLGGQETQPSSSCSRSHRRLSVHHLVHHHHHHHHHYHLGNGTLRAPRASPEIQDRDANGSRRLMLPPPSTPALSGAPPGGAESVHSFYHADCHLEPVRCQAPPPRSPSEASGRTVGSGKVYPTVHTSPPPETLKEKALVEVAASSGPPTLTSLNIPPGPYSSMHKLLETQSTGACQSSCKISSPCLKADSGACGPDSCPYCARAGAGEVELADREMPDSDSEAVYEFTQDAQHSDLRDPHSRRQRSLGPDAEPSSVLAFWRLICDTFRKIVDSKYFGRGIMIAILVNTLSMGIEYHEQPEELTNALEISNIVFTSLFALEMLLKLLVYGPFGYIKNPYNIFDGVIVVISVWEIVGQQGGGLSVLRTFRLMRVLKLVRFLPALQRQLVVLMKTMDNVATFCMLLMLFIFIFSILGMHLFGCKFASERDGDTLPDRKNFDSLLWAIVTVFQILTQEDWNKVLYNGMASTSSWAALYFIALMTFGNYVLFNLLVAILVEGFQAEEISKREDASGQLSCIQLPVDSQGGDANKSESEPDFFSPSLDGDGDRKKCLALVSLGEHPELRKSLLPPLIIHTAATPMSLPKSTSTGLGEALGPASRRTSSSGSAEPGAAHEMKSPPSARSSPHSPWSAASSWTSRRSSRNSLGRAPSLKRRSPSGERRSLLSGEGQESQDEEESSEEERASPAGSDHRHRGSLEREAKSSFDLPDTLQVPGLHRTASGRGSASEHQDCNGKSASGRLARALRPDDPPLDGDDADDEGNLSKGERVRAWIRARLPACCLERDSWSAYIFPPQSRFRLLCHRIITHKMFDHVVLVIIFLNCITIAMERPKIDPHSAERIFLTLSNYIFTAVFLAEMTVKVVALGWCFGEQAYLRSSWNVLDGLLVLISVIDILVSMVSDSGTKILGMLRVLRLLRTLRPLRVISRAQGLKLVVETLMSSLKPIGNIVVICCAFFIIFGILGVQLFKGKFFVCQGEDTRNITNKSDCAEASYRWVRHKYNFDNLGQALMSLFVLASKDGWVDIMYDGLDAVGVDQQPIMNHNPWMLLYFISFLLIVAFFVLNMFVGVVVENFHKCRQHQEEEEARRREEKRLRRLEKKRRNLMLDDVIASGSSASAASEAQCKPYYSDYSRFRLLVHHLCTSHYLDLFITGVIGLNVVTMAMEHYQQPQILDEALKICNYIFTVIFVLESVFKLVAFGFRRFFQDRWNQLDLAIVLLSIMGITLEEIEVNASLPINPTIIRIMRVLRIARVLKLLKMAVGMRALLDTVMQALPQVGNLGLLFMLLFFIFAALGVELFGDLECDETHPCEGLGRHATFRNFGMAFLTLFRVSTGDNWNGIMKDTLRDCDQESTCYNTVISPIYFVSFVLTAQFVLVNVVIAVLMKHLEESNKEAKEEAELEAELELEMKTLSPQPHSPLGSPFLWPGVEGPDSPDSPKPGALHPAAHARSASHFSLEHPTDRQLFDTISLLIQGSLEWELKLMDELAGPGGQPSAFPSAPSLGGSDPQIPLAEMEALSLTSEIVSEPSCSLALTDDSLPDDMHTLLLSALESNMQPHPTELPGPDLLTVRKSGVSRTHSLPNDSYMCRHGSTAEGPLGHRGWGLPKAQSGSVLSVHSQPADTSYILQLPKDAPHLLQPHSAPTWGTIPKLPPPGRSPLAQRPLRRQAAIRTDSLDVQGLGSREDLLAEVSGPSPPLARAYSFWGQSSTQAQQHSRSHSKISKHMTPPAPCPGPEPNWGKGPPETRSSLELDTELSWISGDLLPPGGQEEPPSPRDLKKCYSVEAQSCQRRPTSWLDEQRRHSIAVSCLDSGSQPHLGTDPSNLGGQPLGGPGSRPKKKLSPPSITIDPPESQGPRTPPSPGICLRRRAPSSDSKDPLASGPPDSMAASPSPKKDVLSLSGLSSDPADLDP

| Molecule | Effect on Cav3.1 calcium current density (Cav3.1 [1]) | Inhibitory function on Cav3.1 calcium current (Cav3.1 [2]) | Inhibitory function on Cav3.1 calcium current (Cav3.1 [2]; listed as A461) | Normalized current density, % of control (Cav3.1 [1]; Cav3.1/HEK cells) | Normalized Current Density (Cav3.1 [2]) | Normalized Current Density (Cav3.1 [2]; listed as G49A) |
| --- | --- | --- | --- | --- | --- | --- |
| γ1: wild-type calcium channel γ1 subunit (protein, UniProt Q06432 1-222, looked up) Voltage-dependent calcium …: MSQTKMLKVRVTLFCILAGIVLAMTAVVTDHWAVLSPHMEHHNTTCEAAHFGLWRICTKRIPMDDSKTCGPITLPGEKNCSYFRHFNPGESSEIFEFTTQKEYSISAAAIAIFSLGFIILGSLCVLLSLGKKRDYLLRPASMFYAFAGLCILVSVEVMRQSVKRMIDSEDTVWIEYYYSWSFACACAAFILLFLGGLALLLFSLPRMPRNPWESCMDAEPEH | does not alter calcium current density | no effect on Cav3.1 calcium current | – | – | – | – |
| γ6 A46I: γ6 mutant, alanine 46 replaced by isoleucine (protein, UniProt Q9BXT2 1-260, looked up, variant A46I) Voltage-dependent calcium …: MMWSNFFLQEENRRRGAAGRRRAHGQGRSGLTPEREGKVKLALLLIAVGATLAVLSVGTEFWVELNTYKANGSAVCEAAHLGLWKACTKRLWQADVPVDRDTCGPAELPGEANCTYFKFFTTGENARIFQRTTKKEVNLAAAVIAVLGLAVMALGCLCIIMVLSKGAEFLLRVGAVCFGLSGLLLLVSLEVFRHSVRALLQRVSPEPPPAPRLTYEYSWSLGCGVGAGLILLLGAGCFLLLTLPSWPWGSLCPKRGHRAT | also altered Cav3.1 current density | did not inhibit calcium current | no longer inhibitory | – | – | – |
| γ6 G49A: γ6 with glycine 49 mutated to alanine (protein, UniProt Q9BXT2 1-260, looked up, variant G49A) Voltage-dependent calcium …: MMWSNFFLQEENRRRGAAGRRRAHGQGRSGLTPEREGKVKLALLLAAVAATLAVLSVGTEFWVELNTYKANGSAVCEAAHLGLWKACTKRLWQADVPVDRDTCGPAELPGEANCTYFKFFTTGENARIFQRTTKKEVNLAAAVIAVLGLAVMALGCLCIIMVLSKGAEFLLRVGAVCFGLSGLLLLVSLEVFRHSVRALLQRVSPEPPPAPRLTYEYSWSLGCGVGAGLILLLGAGCFLLLTLPSWPWGSLCPKRGHRAT | – | – | – | 67.6%±5.9% | 67.6% | 67.6%±5.9% |
